Assay results: patent US11667697 (VANDERBILT UNIVERSITY, dated 2023)

How the values were obtained:
VACV L1 protein [1] = biological target: T1, VACV L1 protein (vaccinia virus, UniProt P07612 1-185); assay: purified antigen ELISA
T1 sequence: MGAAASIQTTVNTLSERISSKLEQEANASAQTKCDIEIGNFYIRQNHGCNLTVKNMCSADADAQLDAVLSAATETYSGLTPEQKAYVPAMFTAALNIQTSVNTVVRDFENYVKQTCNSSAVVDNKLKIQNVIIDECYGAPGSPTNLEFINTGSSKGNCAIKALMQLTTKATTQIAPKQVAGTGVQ

VACV L1 protein [2] = biological target: T1, VACV L1 protein; assay: cell-based or functional assay
VACV B5 protein [3] = biological target: T2, VACV B5 protein (vaccinia virus, UniProt Q01227 20-275); assay: lysate ELISA
VACV B5 protein [4] = biological target: T2, VACV B5 protein; assay: purified antigen ELISA
VACV A33 protein [5] = biological target: T3, VACV A33 protein (vaccinia virus, UniProt P68617 58-185); assay: lysate ELISA
VACV A33 protein [6] = biological target: T3, VACV A33 protein; assay: purified antigen ELISA
VACV A33 protein [7] = biological target: T3, VACV A33 protein; assay: cell-based or functional assay
VACV B5 protein [8] = biological target: T2, VACV B5 protein; assay: cell-based or functional assay

B1: VACV-33 (antibody, V domains shown)
VH: QLQLQESGPGLVKPSETLSLTCTVSGGSISSGGYYWGWIRQPPGKGLEWIASIYYSGSTYYNPSLKSRVTISVDTSKTQFSLKLSSVTAADTAVYYCARQSSSTGGFHYWGQGTLVTVSS
VL: QSVLTQPPSVSGAPGQRVTISCTGSSSNIGAGYDVHWYQHLPGTAPKLLIYGNSNRPSGVPDRFSGSKSGTSASLAITGLQAEDEANYYCQSYDSSLSGREVFGGGTQLTVL
notes: human IgG1, anti-L1
In the case of B1, the EC50 (VACV L1 protein [1]) is reported as 0.02 µg/mL, the “PRNT Emax, VACV MV” value (VACV L1 protein [2]) is reported as 56% and the “PRNT Emax, VACV MV+C'” value (VACV L1 protein [2]) is reported as 71%. For the same binder, the “PRNT IC50, VACV MV” value (VACV L1 protein [2]) was 0.3 µg/mL and the “PRNT IC50, VACV MV+C'” value (VACV L1 protein [2]) was 0.7 µg/mL.

B2: MPXV-12 (antibody, V domains shown)
VH: QVQLQQWGAGLLKPSETLSLTCAVYGGSFTNYYWSWIRQFPGKGLEYIGEIDHSGSANYNPSLKSRVTISLDTSKNQFSLRLSSVTAADTAVYFCARDVYGSGTYYWFDPWGQGTL
VL: DIQMTQSPTSLSASVGDRVTITCRASQRISSHLNWYQQKPGKAPKLLIYVASSLQSGVPSRFSGSGSGTDYTLTISSLQPEDFATYFCQQSYTTPYTFGQGTNLQMK
notes: human IgG3, anti-B5
Work on B2 yielded an EC50 (VACV B5 protein [3]) of 5.85 µg/mL and an EC50 (VACV B5 protein [4]) of 0.1 µg/mL.

B3: MPXV-26 (antibody, V domains shown)
VH: QVQLVQSGGGLIQPGGSLRLSCVVSGFNVATNYMSWVRQAPGKGLEWVSVIYSGGSTYYADSVKGRFTISRDNSKNTVFLQMNSLRPEDTAAYYCAKGGGLGLDYWGQGTLVTVSS
VL: QSALTQPPSASGSPGQSVTITCTGSSSDVGGYNYVSWYQQHPGKAPKVVIYEVNKRPSGVPHRFSGSKSGNTASLTVSGLQAEDEADYYCSSYAGTETVAFGGGTKLTVL
notes: human IgG1, anti-L1
In the case of B3, the EC50 (VACV L1 protein [1]) is reported as 0.05 µg/mL, the “PRNT Emax, VACV MV” value (VACV L1 protein [2]) is reported as 95% and the “PRNT Emax, VACV MV+C'” value (VACV L1 protein [2]) is reported as 80%. The “PRNT IC50, VACV MV” value (VACV L1 protein [2]) was 0.3 µg/mL and the “PRNT IC50, VACV MV+C'” value (VACV L1 protein [2]) was 0.7 µg/mL.

B4: MPXV-51 (antibody, V domains shown)
VH: QLQLQESGPGLVKPSETLSLSCTVSGGSINSRTYYWGWIRQPPGKGPEWIGTVFHNVSTLYTSSLRSRVTISVDTSKNRFSLKLTSVTAADTAVYFCGRLTPRNLFRGTLVRWVDPWGQGILVTVSS
VL: EIVLAQSPGTLSLSPGERATLSCRASHNLNSNYLAWYQQKPGQAPRLLIYGASSRATGIPDRFTGSGSGTDFTLTISRLEPEDFAVYYCQQYAGSLTFGGGTKVDIK
notes: human IgG1, anti-A33
B4 was tested, and the EC50 (VACV A33 protein [5]) was 0.05 µg/mL, the EC50 (VACV A33 protein [6]) was 0.04 µg/mL and the “PRNT Emax, VACV EV+C'” value (VACV A33 protein [7]) was 50%. The “PRNT IC50, VACV EV+C'” value (VACV A33 protein [7]) was 0.1 µg/mL.

B5: MPXV-43 (antibody, V domains shown)
VH: QVQLVQSGAEVKKPGASVKVSCKASGYTFTKYTIHWVRQAPGQRLEWVGGIYAGYGNTRYSQKFQGRVTITRDTSASTAYMELSSLRSEDTAVYFCARDFEDFDSWTGYYSWLHWGQGTLVTVSS
VL: EIVLTQSPGTLSLSPGERATLSCRASQSVSSTYLAWYQQKPGQAPRLLIYGASSRATGIPDRFSGSGSGTDFTLTITRLEPEDFAMYFCQQYDSSPSITFGQGTRLEIK
notes: human IgG1, anti-B5
In the case of B5, the EC50 (VACV B5 protein [3]) is reported as 0.011 µg/mL and the EC50 (VACV B5 protein [4]) is reported as 10.1 µg/mL.

B6: VACV-80 (antibody, V domains shown)
VH: EVQLVESGGGLVQPGESLKISCAATGFTFSSYWMHWVRQAPGKGLVWVSGINSDGSSTSYADSVKGRFTIARDNAKGTLYLQMNSLRAEDTAVYYCARVGAVRIAAAAPDYWGQGTLVTVSS
VL: not shown
notes: human IgG1, anti-A33
For B6, the EC50 (VACV A33 protein [5]) was over 69 µg/mL and the EC50 (VACV A33 protein [6]) was 0.065 µg/mL.

B7: MPXV-56 (antibody, V domains shown)
VH: QVQLQQSGPGLVKPSQTLSLTCAISGDSVSSNSAAWIWIRQSPSRGLEWLGTTYYRSEWYSDYPASVKSRVTINADTSKNQFSLQLNSVTPEDTAVYYCARITVGYNSPHLRVTRGWLDPWGPGNP
VL: not shown
notes: human IgG2, anti-A33
In the case of B7, the EC50 (VACV A33 protein [5]) is reported as over 0.07 µg/mL, the EC50 (VACV A33 protein [6]) is reported as 0.06 µg/mL and the “PRNT Emax, VACV EV+C'” value (VACV A33 protein [7]) is reported as 56%. The “PRNT IC50, VACV EV+C'” value (VACV A33 protein [7]) was 0.16 µg/mL.

B8: MPXV-2 (antibody, V domains shown)
VH: QVQLVQSGAEVKKPGASVKVSCKTSGYTFTTYAVHWVRQAPGQRLEWMGWINPGDGDTRYAQKFQDRVTISSDTSATTVYMELSSLRSEDTAVYFCARPRASLLRYFDWLFEQWGQETLVTVSS
VL: EIVLTQSPGTLSLSPGDRATLSCGASQSIHHNYVAWYQQRPGQAPRLLIFGASSRATGIPDRFTGSGSGTEFTLTINRLEPEDFAVYYCQQYGNSVPYSFGQGTKVDIK
notes: human IgG1, anti-B5
With B8 the EC50 (VACV B5 protein [3]) was over 6 µg/mL, the EC50 (VACV B5 protein [4]) was 0.03 µg/mL and the “PRNT Emax, VACV EV+C'” value (VACV B5 protein [8]) was 67%. The “PRNT IC50, VACV EV+C'” value (VACV B5 protein [8]) was 1 µg/mL.
